For experiment [1], the target named is T1, marmoset monkey IL4Rα-his protein (marmoset monkey).
T1 construct: Custom made by Sino biological; no cleavage site stated; also called cal-IL4Rα-his; Cal-IL4Rα
T1 chain: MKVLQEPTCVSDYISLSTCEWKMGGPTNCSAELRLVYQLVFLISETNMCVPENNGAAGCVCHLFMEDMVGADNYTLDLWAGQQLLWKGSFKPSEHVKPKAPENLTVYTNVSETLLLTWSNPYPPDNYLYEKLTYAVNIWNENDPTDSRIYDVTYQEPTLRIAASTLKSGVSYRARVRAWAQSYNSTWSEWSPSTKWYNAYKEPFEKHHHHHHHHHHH
The experiment is described as follows: indirect ELISA on coated cal-IL4Rα-his.

Experiment [2] addresses T2, human IL4Rα expressed on 293F-IL4Rα cells (human, UniProt P24394 26-825).
T2 construct: whole, on cells; also called cell surface human IL4Rα
The experiment is described as follows: flow cytometry on 293F-IL4Rα cells, blocked ligand biotin human IL4.

Experiment [3] addresses T3, recombinant human IL4Rα-his protein (in house made) (human, UniProt P24394 26-232, limits assumed).
T3 construct: also called Human IL4Ra-his
The experiment is described as follows: capture ELISA: antibody captured on anti-IgG Fc plate, biotin human IL4Rα-his detected.

Experiment [4] has as its target T4, cynomolgus monkey IL4Rα-his protein (cynomolgus monkey, UniProt A0A2K5V580 33-239).
T4 construct: Bought protein; also called Cynomolgus IL4Rα; Cyno-IL4Rα-his; not shown: his tag
The experiment is described as follows: indirect ELISA on coated cynomolgus IL4Rα-his.

The target in experiment [5] is T3, recombinant human IL4Rα-his protein (in …). Nature of the experiment: SPR (Biacore), antibody captured, IL4Rα-his flowed.
The target is the same in experiment [6]. Nature of the experiment: competitive ELISA: antibody mixed with biotin human IL4Rα-his, competitor plate-coated Benchmark.
Experiment [7] deals with T2, human IL4Rα expressed on 293F-IL4Rα …. The experiment is described as follows: flow cytometry on 293F-IL4Rα cells.
For experiment [8], the target named is T3, recombinant human IL4Rα-his protein (in …). Nature of the experiment: competitive ELISA: coated human IL4Rα-his, blocked ligand biotin human IL4.
The target is the same in experiment [9]. Nature of the experiment: capture ELISA: antibody captured on anti-IgG Fc plate, biotin human IL4Rα-his detected. The source holds these as a separate data set.
The target is the same in experiment [10]. Nature of the experiment: SPR (Biacore), antibody captured, IL4Rα-his flowed. The source holds these as a separate data set.
For experiment [11] the target is unchanged. Nature of the experiment: competitive ELISA: antibody mixed with biotin human IL4Rα-his, competitor plate-coated Benchmark. The source holds these as a separate data set.

Four molecules from patent publication US20230105029A1 (CHIA TAI TIANQING PHARMACEUTICAL GROUP, published 2023) can be followed below.

“And” between values parts separate entries of the source, which are not always exact repeats. Identical values can stand only once. Like-named read-outs stand apart in the source and are kept apart here.

B1: mouse antibody C2C1A1A1 (antibody, V domains shown)
VH: EVQLVESGGGLVQPGGSLKLSCAASGFTFSTYGMSWVRQTPDKRLELVATINSNGGSTSYPDSVKGRFTISRDNAKNTLYLQMSSLKSEDTAMFYCARFFRFRNAMDYWGQGTSVTVSS
VL: DIQMTQSPASLSASVGETVTITCRTSENIYSYLAWYQQKQGKSPQFLVYNAKTLAEGVPSRFSGSGSGTQFSLNINSLQSEDFGSYYCQHYYGPPTWTFGGGTKLEIK
notes: Mouse hybridoma mAb; also called Mouse C2C1A1A1
The molecule B1 displayed an EC50 in experiment [1] of 0.574 nM.

B2: chimeric antibody C2C1A1A1 (antibody, human IgG4 S228P, kappa, V domains shown)
VH: B1 VH
VL: DIQMTQSPASLSASVGETVTITCRTSENIYSYLAWYQQKQGKSPQFLVYNAKTLAEGVPSRFSGSGSGTQFSLNINSLQSEDFGSYYCQHYYGPPTWTFGGGTKLEIKR
notes: Mouse variable domains on human IgG4/kappa; also called Chimeric C2C1A1A1; chC2C1A1A1
Turning to B2, the IC50 in experiment [2] was found to be 0.482 nM; in experiment [6], 0.172 nM; in experiment [8] it was 2.46 nM. Moreover, the EC50 in [3] is 0.0541 nM; in [4], 0.603 nM; in experiment [7] it was 0.326 nM; in experiment [1], 0.623 nM. Also, the kon in experiment [5] is 329000 M⁻¹ s⁻¹ and 364000 M⁻¹ s⁻¹.

B3: mouse antibody B8G11F2B7G5E8 (antibody, V domains shown)
VH: EVQLQQSGADLVRPGASVKLSCTASGFNIKDTYMHWVKQRPEQGLEWVGRIDPTNGYTIYASKFQGKATITADTSSNTAYMQLSSLTSGDTAVYHCVSRRPWFAYWGQGTLVTVSA
VL: DILMTQTPLSLPVSLGAQASISCRSSQSIVHSNGNTYLEWYLQKPGQSPKLLIYKVTNRFSGVPDRFSGSGSGTDFTLKISRVEAEDLGIYYCFQGSHVPYTFGGGTKLEIK
notes: Mouse hybridoma mAb; also called Mouse B8G11F2B7G5E8; mAb B8G11F2B7G5E8
With B3, in experiment [9], the EC50 stood at 0.213 nM.

B4: chimeric antibody B8G11F2B7G5E8 (antibody, human IgG4 S228P, kappa, V domains shown)
VH: B3 VH
VL: DILMTQTPLSLPVSLGAQASISCRSSQSIVHSNGNTYLEWYLQKPGQSPKLLIYKVTNRFSGVPDRFSGSGSGTDFTLKISRVEAEDLGIYYCFQGSHVPYTFGGGTKLEIKR
notes: Mouse variable domains on human IgG4/kappa; also called Chimeric B8G11F2B7G5E8; chB8G11F2B7G5E8
Regarding B4, the EC50 in experiment [9] was determined as 0.319 nM. Moreover, in experiment [10], the Kd is 3.68 nM and 2.69 nM; the koff was 0.00112 s⁻¹ and 0.00143 s⁻¹; the kon is 306000 M⁻¹ s⁻¹ and 529000 M⁻¹ s⁻¹. Moreover, the 50% inhibitory concentration (IC50) in experiment [11] came out at 1.52 nM.
